# Patent publication US20230080534A1 (SHANGHAI BIOTROY BIOTECHNIQUE, published 2023)
# Substitutions are numbered along the chain they refer to. No end group written: not given here.
# T1: QIEKLVEGKSAIQ (not fully specified)
# T1 construct: alanine at this position
# T1 peptide: QIEKLVEGKSAIQ
# T2: QIEKAVEGKSQIQ (not fully specified)
# T2 construct: alanine at this position
# T2 peptide: QIEKAVEGKSQIQ
# T3: QIEKLVAGKSQIQ (not fully specified)
# T3 construct: member of the group m41; the text speaks of glycine substitution, the sheet prints alanine
# T3 peptide: QIEKLVAGKSQIQ
# T4: QIEKLVEGKSQIA (not fully specified)
# T4 construct: alanine at this position
# T4 peptide: QIEKLVEGKSQIA
# T5: QIEKLVEGASQIQ (not fully specified)
# T5 construct: member of the group m41; the text speaks of glycine substitution, the sheet prints alanine
# T5 peptide: QIEKLVEGASQIQ
# T6: QIEALVEGKSQIQ (not fully specified)
# T6 construct: member of the group m41; the text speaks of glycine substitution, the sheet prints alanine
# T6 peptide: QIEALVEGKSQIQ
# T7: SEMG2(497-509) polypeptide QIEKLVEGKSQIQ (human)
# T7 peptide: QIEKLVEGKSQIQ
# T8: human SEMG2 full-length protein (human, UniProt Q02383 24-582, limits assumed)
# T8 construct: also called SEMG2 protein; semenogelin 2
# T8 sequence: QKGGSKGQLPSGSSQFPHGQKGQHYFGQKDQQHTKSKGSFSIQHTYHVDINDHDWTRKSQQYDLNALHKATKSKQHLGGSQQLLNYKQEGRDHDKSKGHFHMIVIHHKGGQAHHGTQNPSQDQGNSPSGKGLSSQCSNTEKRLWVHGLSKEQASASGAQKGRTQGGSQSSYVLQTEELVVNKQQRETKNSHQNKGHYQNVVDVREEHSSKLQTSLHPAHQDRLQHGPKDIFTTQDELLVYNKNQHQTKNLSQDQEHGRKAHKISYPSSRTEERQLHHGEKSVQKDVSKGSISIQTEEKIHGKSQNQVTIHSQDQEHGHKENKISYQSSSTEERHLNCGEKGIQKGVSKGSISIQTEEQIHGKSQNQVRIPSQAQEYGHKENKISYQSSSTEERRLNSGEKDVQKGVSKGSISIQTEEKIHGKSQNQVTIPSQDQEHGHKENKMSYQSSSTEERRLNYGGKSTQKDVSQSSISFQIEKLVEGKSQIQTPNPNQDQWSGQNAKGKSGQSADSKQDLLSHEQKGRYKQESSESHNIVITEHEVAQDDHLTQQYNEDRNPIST
# T9: SEMG2(563-574) fragment (human)
# T9 peptide: VAQDDHLTQQYN
# T10: QIAKLVEGKSQIQ (not fully specified)
# T10 construct: member of the group m41; the text speaks of glycine substitution, the sheet prints alanine
# T10 peptide: QIAKLVEGKSQIQ
# T11: QIEKLAEGKSQIQ (not fully specified)
# T11 construct: member of the group m41; the text speaks of glycine substitution, the sheet prints alanine
# T11 peptide: QIEKLAEGKSQIQ
# T12: QIEKLVEGKAQIQ (not fully specified)
# T12 construct: alanine at this position
# T12 peptide: QIEKLVEGKAQIQ
# T13: QAEKLVEGKSQIQ (not fully specified)
# T13 construct: member of the group m41; the text speaks of glycine substitution, the sheet prints alanine
# T13 peptide: QAEKLVEGKSQIQ
# T14: SEMG2(354-403) fragment (human)
# T14 peptide: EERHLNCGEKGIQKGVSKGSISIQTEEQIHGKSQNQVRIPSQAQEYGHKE
# T15: SEMG2(442-453) fragment (human)
# T15 peptide: IHGKSQNQVTIP
# T16: AIEKLVEGKSQIQ (not fully specified)
# T16 construct: member of the group m41; the text speaks of glycine substitution, the sheet prints alanine
# T16 peptide: AIEKLVEGKSQIQ
# T17: QIEKLVEAKSQIQ
# T17 construct: member of the group m41; position 504 is glycine in SEMG2 and the sheet prints alanine there
# T17 peptide: QIEKLVEAKSQIQ
# T18: QIEKLVEGKSQAQ (not fully specified)
# T18 construct: member of the group m41; the text speaks of glycine substitution, the sheet prints alanine
# T18 peptide: QIEKLVEGKSQAQ
# T19: BSA-conjugated human SEMG2 (497-509) polypeptide (human, also: coupled to BSA, site not given here)
# T19 peptide: QIEKLVEGKSQIQ
# B1: MM13 (antibody, V domains shown)
# VH: EVQLQQSGAELVRSGASVKLSCTASGFNIKDYYMHWMKQRPEQGLEWIGWIDPENGDNEYAPKFQGKATMTADTSSNTAYLQLSSLTSEDTAVYYCNVGGAHYWGQGTTLTVSS
# VL: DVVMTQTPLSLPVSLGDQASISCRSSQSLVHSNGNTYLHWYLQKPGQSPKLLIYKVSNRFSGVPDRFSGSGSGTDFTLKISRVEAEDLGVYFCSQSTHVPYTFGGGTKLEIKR
# B2: MM08 (antibody, IgG1, V domains shown)
# VH: QVQLQQPGAELVRPGASVKLSCKSSDYTFTRYWMNWVKQRPGQGLEWIGMIDPSDSETHHNQMFKDKATLTVDKSSSTAYMQLSSLTSEDSAVYFCARYLGGKEGSFDYWGQGTTLTVSS
# VL: DIVLTQSPSSLAVSAGERVTMSCKSSQSLFNSRTRKNYLAWYQQKPGQSPKLLLYWASTRESGVPDRFTGSGSGTDFTLTISSVKTEDLAVYYCKQSYELPWTFGGGTKLEMKR
# B3: MM07 (antibody, V domains shown)
# VH: QIQLVQSGPELKKPGETVRISCKASGYTLTTAGMQWVQKIPGKGLKWIGWINTHSGVAEFAEDFKGRFAFSLETSANTAYLQIRNLKNEDTATYFCARLGLLGYWGQGTTLTVSS
# VL: DILLTQSPAILSVSPGERVSFSCRASQSIGTTIHWYQQRTNGSPRLLIKYASESISGIPSRFSGSGSGTDFTLSINSVESEDIADYYCQQSNSWPWTFGGGTKLEIKR
# notes: The VH and VL begin with what look like leader peptides (MDWLW..., MVSSAQ...)
# B4: 67-3-67-3 (antibody, V domains shown)
# VH: QVQLLESGGGVVQPGRSLRLSCAASGFTFSSYAMHWVRQASGKGLEWVAVISYDGSNKYYADSVKGRFTISRDNSKNTLYLQMNSLRAEDTAVYYCARMDNHGSPDYWGQGTLVTVSS
# VL: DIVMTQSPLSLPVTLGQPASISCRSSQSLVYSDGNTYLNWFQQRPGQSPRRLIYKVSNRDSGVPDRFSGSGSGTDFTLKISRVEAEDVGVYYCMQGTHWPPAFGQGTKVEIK
# B5: 67-9-67-3 (antibody, V domains shown)
# VH: B4 VH with N101S, H102G
# VL: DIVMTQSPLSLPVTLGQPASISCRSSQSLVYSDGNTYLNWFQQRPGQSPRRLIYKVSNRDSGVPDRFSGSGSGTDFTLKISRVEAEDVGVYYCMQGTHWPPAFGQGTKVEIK
# B6: 67-3-67-5 (antibody, V domains shown)
# VH: B4 VH
# VL: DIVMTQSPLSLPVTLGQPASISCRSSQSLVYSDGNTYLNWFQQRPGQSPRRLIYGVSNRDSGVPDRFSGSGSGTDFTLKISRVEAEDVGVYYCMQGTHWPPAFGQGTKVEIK
# B7: 67-3-67-4 (antibody, V domains shown)
# VH: B4 VH
# VL: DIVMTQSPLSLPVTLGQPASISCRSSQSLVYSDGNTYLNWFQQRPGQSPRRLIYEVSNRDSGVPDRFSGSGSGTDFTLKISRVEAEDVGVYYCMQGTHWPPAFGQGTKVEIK
# B8: MM15 (antibody, IgG2a, V domains shown)
# VH: QVQLKESGPGLVAPSQSLSITCTVSGFSLTRYGVSWVRQTPGKGLEWLGIIWGDGSTNYHSALISRLSISKDNSKSQVFLKLNSLQTDDTATYYCAKQERFSDGYYDGFAYWGQGTLVTVSA
# VL: QIVLTQSPAIMSASPGEKVTITCSASSSVSYMHWFQQKPGTSPKLWIYSTSNLASGVPARFSGSGSGTSYSLTISRMEAEDAATYYCQQRSSYPFTFGSGTKLEIKR
# Molecular target: T1, QIEKLVEGKSAIQ
# Assay: ELISA, immobilized peptide QIEKLVEGKSAIQ
# Text: (§1) FIG. 20 depicts the value detected by ELISA, i.e., OD₄₅₀ absorbance. […] This experiment is used to determine the precise amino acid epitopes that different monoclonal antibodies bind to, and the relative importance of each amino acid to the binding antibody.
row,OD450 absorbance,Binder
1,1.19,B1
2,1.22,B2
3,1.16,B3

# Molecular target: T2, QIEKAVEGKSQIQ
# Assay: ELISA, immobilized peptide QIEKAVEGKSQIQ
# Text: as §1
row,OD450 absorbance,Binder
1,0.049,B1
2,0.213,B2
3,0.123,B3

# Molecular target: T3, QIEKLVAGKSQIQ
# Assay: ELISA, immobilized peptide QIEKLVAGKSQIQ
# Text: as §1
# To further precisely define the exact epitopes (specific to the level of single amino acid) to which blocking antibodies MM02, MM05, MM07, MM08, MM13, MM14 bind, corresponding ELISA analysis method was established. […] Anti-mouse or anti-rabbit secondary antibodies were then used to detect the corresponding bound antibodies.
row,OD450 absorbance,Binder
1,0.738,B1
2,0.566,B2
3,0.899,B3

# Molecular target: T4, QIEKLVEGKSQIA
# Assay: ELISA, immobilized peptide QIEKLVEGKSQIA
# Text: as §1
row,OD450 absorbance,Binder
1,1.25,B1
2,1.19,B2
3,1.26,B3

# Molecular target: T5, QIEKLVEGASQIQ
# Assay: ELISA, immobilized peptide QIEKLVEGASQIQ
# Text: as §1
row,OD450 absorbance,Binder
1,0.818,B1
2,0.939,B2
3,0.79,B3

# Molecular target: T6, QIEALVEGKSQIQ
# Assay: ELISA, immobilized peptide QIEALVEGKSQIQ
# Text: as §1
row,OD450 absorbance,Binder
1,0.712,B1
2,0.789,B2
3,0.822,B3

# Molecular target: T7, SEMG2(497-509) polypeptide QIEKLVEGKSQIQ
# Assay: ELISA, immobilized peptide QIEKLVEGKSQIQ
# Text: as §1
row,OD450 absorbance,Binder
1,1.23,B1
2,1.26,B2
3,1.19,B3

# Molecular target: T8, human SEMG2 full-length protein
# Assay: biolayer interferometry (ForteBio Blitz or Gator)
# Description: The equilibrium dissociation constant (KD) of the antibody of the present invention binding to human SEMG2 was determined by biolayer interferometry (ForteBio Bltz or Gator instrument). […] 100 μl of SD buffer, antibody and SEMG2 were added to a 96-well black polystyrene half area microplate, respectively. Select the sensor location based on the sample location layout. KD values were analyzed using molecular interaction analysis software. In the experiments of the assays, the affinity constants of murine monoclonal antibodies and human antibodies H88-67, H88-93 and H88-96 are shown in Table 8, and the affinity and dissociation curves of SEMG2 and corresponding proteins are shown in FIG. 25.
row,Kd,Binder
1,0.693 nM,B1
2,2.34 nM,B2
3,1.82 nM,B3

# Molecular target: T7, SEMG2(497-509) polypeptide QIEKLVEGKSQIQ
# Assay: ELISA, immobilized antigen SEMG2 (497-509)
# Text: (§2) To clearly distinguish the binding epitopes of blocking antibodies (i.e., antibodies that can inhibit the binding between SEMG2 and CD27) and non-blocking antibodies, a corresponding ELISA analysis method was established. […] Anti-mouse or anti-rabbit secondary antibodies were then used to detect the corresponding bound antibodies.
row,A450 absorbance,Binder
1,1.14,B1
2,1.14,B2
3,1.14,B3

# Molecular target: T9, SEMG2(563-574) fragment
# Assay: ELISA, immobilized antigen SEMG2 (563-574)
# Text: as §2
A450 absorbance,binding result,Binder
0.01,no binding,B1
0.001,no binding,B2
0.012,no binding,B3

# Molecular target: T10, QIAKLVEGKSQIQ
# Assay: ELISA, immobilized peptide QIAKLVEGKSQIQ
row,OD450 absorbance,Binder
1,0.67,B1
2,0.544,B2
3,0.48,B3

# Molecular target: T11, QIEKLAEGKSQIQ
# Assay: ELISA, immobilized peptide QIEKLAEGKSQIQ
# Text: as §1
row,OD450 absorbance,Binder
1,0.658,B1
2,0.509,B2
3,0.814,B3

# Molecular target: T8, human SEMG2 full-length protein
# Assay: ELISA on SEMG2; the EC50 table prints no unit, the axis is log (antibody concentration, nM)
row,EC50,Binder
1,0.614 nM,B4
2,0.272 nM,B5
3,0.68 nM,B6
4,0.537 nM,B7

# Molecular target: T12, QIEKLVEGKAQIQ
# Assay: ELISA, immobilized peptide QIEKLVEGKAQIQ
# Text: as §1
row,OD450 absorbance,Binder
1,0.211,B1
2,0.023,B2
3,0.296,B3

# Molecular target: T8, human SEMG2 full-length protein
# Assay: ELISA, plate coated with SEMG2 protein, anti-mouse secondary antibody; the EC50 table prints no unit, the axis is log (antibody concentration, nM)
row,EC50,Binder
1,0.382 nM,B1
2,0.418 nM,B2
3,0.444 nM,B8

# Molecular target: T13, QAEKLVEGKSQIQ
# Assay: ELISA, immobilized peptide QAEKLVEGKSQIQ
# Text: as §1
row,OD450 absorbance,Binder
1,0.467,B1
2,0.671,B2
3,0.833,B3

# Molecular target: T14, SEMG2(354-403) fragment
# Assay: ELISA, immobilized antigen SEMG2 (354-403)
# Text: as §2
A450 absorbance,binding result,Binder
0.001,no binding,B1
0.012,no binding,B2
0.001,no binding,B3

# Molecular target: T15, SEMG2(442-453) fragment
# Assay: ELISA, immobilized antigen SEMG2 (442-453)
# Text: as §2
A450 absorbance,binding result,Binder
0.008,no binding,B1
0.008,no binding,B2
0.011,no binding,B3

# Molecular target: T16, AIEKLVEGKSQIQ
# Assay: ELISA, immobilized peptide AIEKLVEGKSQIQ
# Text: as §1
row,OD450 absorbance,Binder
1,0.48,B1
2,0.942,B2
3,0.919,B3

# Molecular target: T17, QIEKLVEAKSQIQ
# Assay: ELISA, immobilized peptide QIEKLVEAKSQIQ
# Text: as §1
row,OD450 absorbance,Binder
1,0.842,B1
2,0.824,B2
3,0.58,B3

# Molecular target: T18, QIEKLVEGKSQAQ
# Assay: ELISA, immobilized peptide QIEKLVEGKSQAQ
# Text: as §1
row,OD450 absorbance,Binder
1,0.699,B1
2,0.798,B2
3,0.509,B3

# Molecular target: T8, human SEMG2 full-length protein
# Assay: ELISA, immobilized antigen SEMG2 (1-582)
# Text: as §2
row,A450 absorbance,Binder
1,1.13,B1
2,1.13,B2
3,1.14,B3

# Molecular target: T8, human SEMG2 full-length protein
# Assay: ELISA (FIG. 21B-D)
row,fold higher affinity than the parent antibody (H88-67),Binder
1,> 10 fold,B4
2,> 10 fold,B5
3,> 10 fold,B6
4,> 10 fold,B7

# Molecular target: T19, BSA-conjugated human SEMG2 (497-509) …
# Assay: ELISA (FIG. 21B-D)
row,fold higher affinity than the parent antibody (H88-67),Binder
1,> 10 fold,B4
2,> 10 fold,B5
3,> 10 fold,B6
4,> 10 fold,B7
